From US20250170247A1, “CONJUGATES, AND USES THEREOF” (CITY UNIVERSITY OF HONG KONG, priority 2023, published 2025)
{5Hexynyl} = hexynyl group used for click conjugation

Key:
[1] = target: T1, RHAU53 (Homo sapiens, UniProt Q9H2U1); settings: It is known; cited from earlier work
T1 construct: RHAU-specific motif containing 53 amino acids (RHAU53)
T1 sequence (Q9H2U1 53-105 limits assumed): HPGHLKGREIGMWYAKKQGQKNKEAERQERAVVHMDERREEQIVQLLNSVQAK

[2] = target: T2, DHX36 (RHAU), full-length (UniProt Q9H2U1 Q9H2U1:1-1008); assay: EMSA; strong binding, data not shown; settings: G4
T2 sequence: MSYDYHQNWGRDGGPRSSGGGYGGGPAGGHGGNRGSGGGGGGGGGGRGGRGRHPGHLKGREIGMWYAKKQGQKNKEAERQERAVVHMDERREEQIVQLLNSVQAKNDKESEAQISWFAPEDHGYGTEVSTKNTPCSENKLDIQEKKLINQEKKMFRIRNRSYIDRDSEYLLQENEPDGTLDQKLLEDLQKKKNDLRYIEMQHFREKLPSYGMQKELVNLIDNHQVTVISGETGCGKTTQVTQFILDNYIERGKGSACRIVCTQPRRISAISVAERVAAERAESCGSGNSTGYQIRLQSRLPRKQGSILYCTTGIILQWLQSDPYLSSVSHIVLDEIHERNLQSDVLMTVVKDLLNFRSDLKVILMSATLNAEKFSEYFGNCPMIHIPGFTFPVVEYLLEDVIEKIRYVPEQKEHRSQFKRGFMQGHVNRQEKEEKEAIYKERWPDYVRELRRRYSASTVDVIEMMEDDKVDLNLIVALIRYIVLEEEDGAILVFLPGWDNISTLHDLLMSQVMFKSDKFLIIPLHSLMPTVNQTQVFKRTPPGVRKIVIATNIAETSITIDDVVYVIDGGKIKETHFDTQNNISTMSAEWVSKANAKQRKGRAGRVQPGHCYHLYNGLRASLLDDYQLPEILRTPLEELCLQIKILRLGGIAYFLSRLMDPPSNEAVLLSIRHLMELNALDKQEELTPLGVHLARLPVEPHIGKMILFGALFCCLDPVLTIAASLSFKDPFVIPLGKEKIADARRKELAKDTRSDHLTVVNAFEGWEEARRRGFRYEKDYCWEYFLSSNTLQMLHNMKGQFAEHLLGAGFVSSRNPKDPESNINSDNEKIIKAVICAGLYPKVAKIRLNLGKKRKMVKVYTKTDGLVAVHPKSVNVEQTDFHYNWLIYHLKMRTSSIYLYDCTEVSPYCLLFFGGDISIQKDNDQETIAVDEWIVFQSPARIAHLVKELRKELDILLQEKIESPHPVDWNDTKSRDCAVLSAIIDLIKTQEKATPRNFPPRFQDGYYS

[3] = target: T2, DHX36 (RHAU), full-length; assay: MST; 25 mM Tris-HCl pH 7.5, 150 mM KCl, 1 mM MgCl2, 37 C; settings: label: 3'-FAM; G4
Experimental: Before the reaction, FAM labeled G4-compound conjugate was heated at 75° C. for 5 minutes and cooled down on the ice for 10 minutes. DHX36 protein was serially diluted to 16 samples from the highest concentration of […]. FAM-labeled oligonucleotides (40 nM) were added to each sample and incubated in Tris-HCl buffer (25 mM Tris-HCl, pH 7.5, 150 mM KCl, and 1 mM MgCl₂) at 37° C. for 30 minutes. Binding affinity was carried out on capillary tubes using an MST machine. The curve fitting and Kd determination were obtained from software.
Full-length DHX36 protein was then used to further confirm the recognition of the present rG4-PROTAC to G4BP via MST binding assay. […] As described above, the affinity of A_dG4_FAM to RHAU53 was nearly 4.7 times higher (Kd=[…]) than that of FAM_rG4_A (FIG. 2B). The interaction between A_dG4_FAM and DHX36 protein quantified by MST (Kd=303±55; FIG. 2D) confirmed the result, indicating a relatively weaker interaction with DHX36.

[4] = target: T3, RHAU53 peptide (53-aa RHAU/DHX36 G4-binding fragment) (UniProt Q9H2U1 Q9H2U1:53-105); assay: EMSA; 25 mM Tris-HCl pH 7.5, 150 mM KCl, 1 mM MgCl2, 37 C; settings: label: 3'-FAM
T3 chain: T1 sequence (Q9H2U1 53-105 limits assumed)
Experimental: All oligonucleotides were heated for 5 minutes at 75° C. and cooled down for 10 minutes on ice. Different concentrations of RHAU53 peptide (0-2 μM) and 5-carboxyfluorescein (FAM)-labeled oligonucleotides or G4-compound conjugate (30 nM) were mixed in the Tris-HCl buffer (25 mM Tris-HCl, pH 7.5, 150 mM KCl and 1 mM MgCl₂). The mixture was incubated at 37° C. for 30 minutes, and 5% glycerol was then added to each sample. Bound and unbound RNAs were separated on 10% native polyacrylamide gel in 0.5× Tris/Borate/EDTA (TBE) at 4° C., 150 V for 30 minutes. The gel was scanned by scanner at 500 V and quantified by software.
To evaluate the target recognition ability of the rG4-PROTACs, the binding assay of FAM_rG4_A to RHAU53 peptide was performed by EMSA. RHAU53 peptide, the truncated DHX36 fragment, is the most important core protein domain required for rG4-RHAU interaction.

## hTERC rG4: human telomerase RNA component rG4, 5′-GGGUUGCGGAGGGUGGGCCU-3′ (SEQ ID NO: 1), the warhead targeting G4BP (RNA, 5' {5Hexynyl}, backbone not given here; further chemistry not fully specified)
[1]
  affinity for RHAU53: nanomolar affinity

## CGGGGCGGGUGGGGAGGGGU (ssRNA) [APP 3'UTR rG4]
[2]
  binding result: binds

## GGGUUGCGGAGGGUGGGCCU (ssRNA, 5'-hexynyl clicked to azide-modified AHPC) [FAM_rG4_A (hTERC rG4 WT-AHPC conjugate)]
[3]
  Kd: 79.7 nM
[4]
  Kd: 67.4 nM
